Experimental findings from patent publication US20140363423A1 (NATIONAL TAIWAN UNIVERSITY, published 2014) are described below.

The target in experiment [1] is platelet glycoprotein VI (GPVI) on washed human platelets (human) (UniProt Q9HCN6). Nature of the experiment: cell-based or functional assay.
The target in experiment [2] is T1, platelet glycoprotein VI (GPVI) on washed human platelets (human), Q9HCN6.
T1 chain: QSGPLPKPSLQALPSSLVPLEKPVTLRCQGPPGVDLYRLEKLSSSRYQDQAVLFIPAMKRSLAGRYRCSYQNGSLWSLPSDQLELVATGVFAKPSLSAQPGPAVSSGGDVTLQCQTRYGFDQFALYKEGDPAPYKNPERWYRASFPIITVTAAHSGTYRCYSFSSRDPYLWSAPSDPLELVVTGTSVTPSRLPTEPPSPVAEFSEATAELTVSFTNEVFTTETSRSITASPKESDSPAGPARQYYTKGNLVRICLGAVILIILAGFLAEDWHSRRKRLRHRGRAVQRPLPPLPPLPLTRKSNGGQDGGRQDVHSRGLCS
The experiment in a line: cell-based or functional assay.

Experiment [3] addresses T2, platelet glycoprotein VI (GPVI) on washed human platelets (human, UniProt Q9HCN6 21-339).
T2 construct: whole, on cells; Native receptor on human platelets; also called platelet GPVI; collagen receptor GPVI
T2 sequence: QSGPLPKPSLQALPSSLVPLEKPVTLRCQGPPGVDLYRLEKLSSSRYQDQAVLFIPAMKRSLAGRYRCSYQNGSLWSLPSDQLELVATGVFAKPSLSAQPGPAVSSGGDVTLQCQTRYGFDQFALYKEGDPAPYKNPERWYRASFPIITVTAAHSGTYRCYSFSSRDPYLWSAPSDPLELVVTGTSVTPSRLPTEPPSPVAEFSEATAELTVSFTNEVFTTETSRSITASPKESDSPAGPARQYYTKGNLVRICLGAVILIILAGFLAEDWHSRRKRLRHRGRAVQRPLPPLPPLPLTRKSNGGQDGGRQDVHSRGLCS
Nature of the experiment: flow cytometry on human platelets; inhibition of 6B12 (anti-GPVI) binding.

For experiment [4], the target named is T2, platelet glycoprotein VI (GPVI) on …. The experiment in a line: cell-based or functional assay.

“And” between values parts separate entries of the source, which are not always exact repeats. Identical values can stand only once.

Turning to Tro-α6 W116A mutant hexapeptide CKAMNV, the Inhibition of the collagen-induced aggregation (%) at 100 µg/ml in experiment [1] was 12.3%.

In the case of d-form Tro-α6 hexapeptide C(dK)WM(dN)V, in experiment [1], the IC50, inhibition of the collagen-induced aggregation was 6.82 µg/ml and 8.75 µM; the Inhibition of the collagen-induced aggregation (%) at 100 µg/ml was determined as 89.4%.

Consider Tro-α6 M117A mutant hexapeptide CKWANV, for which, in experiment [1], the Inhibition of the collagen-induced aggregation (%) at 100 µg/ml is 52.9%.

B1: decapeptide of trowaglerix α subunit (Troα10, …) (peptide)
peptide: GFCKWMNVAC
modifications: not checked
In experiment [2], B1 returned an IC50, inhibition of the collagen-induced aggregation of 30.4 µM; an Inhibition of the collagen-induced aggregation (%) at 100 µg/ml of 93.8%; an inhibition on collagen-induced aggregation of 60%.

B2: recombinant convulxin β subunit C-terminal (CVX β C-terminal 94-125) (peptide)
chain: EEFECLISRTFDNQWLSAPCSDTYSFVCKFEA
Take B2: the binding result in experiment [3] is reported as “binds”.

B3: Agg-α6 (Aggretin) hexapeptide RKWVNY (peptide)
peptide: RKWVNY
As to B3, the “Inhibition of the collagen-induced aggregation (%) at 100 µg/ml” value (shortened to “Inhibition … (%) at 100 µg/ml”) in experiment [4] stood at 21.7%.

B4: recombinant convulxin α subunit C-terminal (CVX α C-terminal 104-135) (peptide)
chain: CSLLKKETGFRKWFVASCIGKIPFVCKFPPQC
B4: the binding result in experiment [3] was “binds”.

B5: hexapeptide of trowaglerix α subunit (Troα6, CKWMNV) (peptide)
peptide: CKWMNV
On to B5, for which, in experiment [4], the “IC50, inhibition of the collagen-induced aggregation” value is 83.4 µg/ml and 107 µM; the “Inhibition … (%) at 100 µg/ml” value came to 44.3%.

B6: CVX-α6 (Convulxin) hexapeptide RKWFVA (peptide)
peptide: RKWFVA
Take B6: the “Inhibition … (%) at 100 µg/ml” value in experiment [4] was 28.7%.

B7: Agk--β6 hexapeptide NQWLSR (peptide)
peptide: NQWLSR
Regarding B7, in experiment [4], the “Inhibition … (%) at 100 µg/ml” value turned out to be 24.6%.
